Results taken from paper PMC10397247.

Tests used:
4H4001-bA = molecular target: T1, 4H4001-bA; test: two-hybrid library CCNG1;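 also: natural log of median RNA to DNA barcode read ratio; higher means stronger binding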
T1 chain: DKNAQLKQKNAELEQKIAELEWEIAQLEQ

4H454-bA = molecular target: T2, 4H454-bA; test: two-hybrid library CCNG1;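 also: natural log of median RNA to DNA barcode read ratio; higher means stronger binding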
T2 chain: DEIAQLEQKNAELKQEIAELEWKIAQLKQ

4H462-bA = molecular target: T3, 4H462-bA; test: two-hybrid library CCNG1;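 also: natural log of median RNA to DNA barcode read ratio; higher means stronger binding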
T3 chain: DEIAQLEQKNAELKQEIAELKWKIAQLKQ

4H568-bA = molecular target: T4, 4H568-bA; test: two-hybrid library CCNG1;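 also: natural log of median RNA to DNA barcode read ratio; higher means stronger binding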
T4 chain: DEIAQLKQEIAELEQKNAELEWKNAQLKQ

4H607-bA = molecular target: T5, 4H607-bA; test: two-hybrid library CCNG1;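 also: natural log of median RNA to DNA barcode read ratio; higher means stronger binding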
T5 chain: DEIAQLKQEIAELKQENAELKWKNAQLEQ

4H687-bA = molecular target: T6, 4H687-bA; test: two-hybrid library CCNG1;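 also: natural log of median RNA to DNA barcode read ratio; higher means stronger binding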
T6 chain: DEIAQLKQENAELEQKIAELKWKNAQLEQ

4H717-bA = molecular target: T7, 4H717-bA; test: two-hybrid library CCNG1
T7 chain: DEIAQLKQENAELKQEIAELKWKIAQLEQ

4H72-bA = molecular target: T8, 4H72-bA; test: two-hybrid library CCNG1
T8 chain: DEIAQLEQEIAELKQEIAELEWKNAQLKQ

4H754-bA = molecular target: T9, 4H754-bA; test: two-hybrid library CCNG1
T9 chain: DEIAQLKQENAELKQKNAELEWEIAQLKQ

4H797-bA = molecular target: T10, 4H797-bA; test: two-hybrid library CCNG1
T10 chain: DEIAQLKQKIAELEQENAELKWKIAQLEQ

4H883-bA = molecular target: T11, 4H883-bA; test: two-hybrid library CCNG1
T11 chain: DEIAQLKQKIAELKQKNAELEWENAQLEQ

4H908-bA = molecular target: T12, 4H908-bA; test: two-hybrid library CCNG1
T12 chain: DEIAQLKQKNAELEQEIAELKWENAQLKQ

4H918-bA = molecular target: T13, 4H918-bA; test: two-hybrid library CCNG1
T13 chain: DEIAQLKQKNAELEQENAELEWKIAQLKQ

4H953-bA = molecular target: T14, 4H953-bA; test: two-hybrid library CCNG1
T14 chain: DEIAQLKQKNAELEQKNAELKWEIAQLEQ

4H967-bA = molecular target: T15, 4H967-bA; test: two-hybrid library CCNG1
T15 chain: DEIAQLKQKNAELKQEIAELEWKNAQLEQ

4H3926-bN = molecular target: T16, 4H3926-bN; test: two-hybrid library CCNG1; conditions: mean of both orientations
T16 chain: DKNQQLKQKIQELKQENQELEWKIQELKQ

4H4073-bN = molecular target: T17, 4H4073-bN; test: two-hybrid library CCNG1
T17 chain: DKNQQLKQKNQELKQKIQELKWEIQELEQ

4H457-bN = molecular target: T18, 4H457-bN; test: two-hybrid library CCNG1
T18 chain: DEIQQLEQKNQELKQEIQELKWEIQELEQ

4H575-bN = molecular target: T19, 4H575-bN; test: two-hybrid library CCNG1
T19 chain: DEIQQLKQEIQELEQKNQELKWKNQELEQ

4H591-bN = molecular target: T20, 4H591-bN; test: two-hybrid library CCNG1
T20 chain: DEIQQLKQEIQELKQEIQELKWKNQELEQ

4H626-bN = molecular target: T21, 4H626-bN; test: two-hybrid library CCNG1
T21 chain: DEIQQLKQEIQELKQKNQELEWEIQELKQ

4H683-bN = molecular target: T22, 4H683-bN; test: two-hybrid library CCNG1
T22 chain: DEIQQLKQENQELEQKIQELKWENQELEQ

4H754-bN = molecular target: T23, 4H754-bN; test: two-hybrid library CCNG1
T23 chain: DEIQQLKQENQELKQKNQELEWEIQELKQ

4H780-bN = molecular target: T24, 4H780-bN; test: two-hybrid library CCNG1
T24 chain: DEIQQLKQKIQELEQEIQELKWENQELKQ

4H797-bN = molecular target: T25, 4H797-bN; test: two-hybrid library CCNG1
T25 chain: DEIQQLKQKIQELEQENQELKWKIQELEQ

4H855-bN = molecular target: T26, 4H855-bN; test: two-hybrid library CCNG1
T26 chain: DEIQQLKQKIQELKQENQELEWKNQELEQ

4H906-bN = molecular target: T27, 4H906-bN; test: two-hybrid library CCNG1
T27 chain: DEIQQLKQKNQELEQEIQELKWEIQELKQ

4H918-bN = molecular target: T28, 4H918-bN; test: two-hybrid library CCNG1
T28 chain: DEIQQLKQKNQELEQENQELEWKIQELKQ

4H953-bN = molecular target: T29, 4H953-bN; test: two-hybrid library CCNG1
T29 chain: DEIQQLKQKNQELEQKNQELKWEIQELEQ

4H968-bN = molecular target: T30, 4H968-bN; test: two-hybrid library CCNG1
T30 chain: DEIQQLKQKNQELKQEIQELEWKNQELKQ

APC3881-AA = molecular target: T31, APC3881-AA; test: two-hybrid library CCmax
T31 chain: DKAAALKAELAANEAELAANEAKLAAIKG

APC4100-AA = molecular target: T32, APC4100-AA; test: two-hybrid library CCmax; conditions: mean of both orientations
T32 chain: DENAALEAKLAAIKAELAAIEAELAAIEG

APC4336-AA = molecular target: T33, APC4336-AA; test: two-hybrid library CCmax; conditions: mean of both orientations
T33 chain: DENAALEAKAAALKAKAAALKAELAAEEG

APC5009-AA = molecular target: T34, APC5009-AA; test: two-hybrid library CCmax
T34 chain: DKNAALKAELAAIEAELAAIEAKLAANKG

APC542-AA = molecular target: T35, APC542-AA; test: two-hybrid library CCmax; conditions: mean of both orientations
T35 chain: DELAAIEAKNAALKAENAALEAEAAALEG

APC5531-AA = molecular target: T36, APC5531-AA; test: two-hybrid library CCmax; conditions: mean of both orientations
T36 chain: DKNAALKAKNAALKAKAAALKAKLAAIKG

APC6088-AA = molecular target: T37, APC6088-AA; test: two-hybrid library CCmax; conditions: mean of both orientations
T37 chain: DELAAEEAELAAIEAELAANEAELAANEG

APC7524-AA = molecular target: T38, APC7524-AA; test: two-hybrid library CCmax; conditions: mean of both orientations
T38 chain: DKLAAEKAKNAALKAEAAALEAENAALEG

APC8401-AA = molecular target: T39, APC8401-AA; test: two-hybrid library CCmax; conditions: mean of both orientations
T39 chain: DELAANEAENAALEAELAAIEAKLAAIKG

APC8516-AA = molecular target: T40, APC8516-AA; test: two-hybrid library CCmax; conditions: mean of both orientations
T40 chain: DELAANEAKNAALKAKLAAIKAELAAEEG

APC9141-AA = molecular target: T41, APC9141-AA; test: two-hybrid library CCmax; conditions: mean of both orientations
T41 chain: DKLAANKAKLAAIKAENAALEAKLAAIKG

APC9182-AA = molecular target: T42, APC9182-AA; test: two-hybrid library CCmax; conditions: mean of both orientations
T42 chain: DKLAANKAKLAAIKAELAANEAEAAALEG

APC9291-AA = molecular target: T43, APC9291-AA; test: two-hybrid library CCmax; conditions: mean of both orientations
T43 chain: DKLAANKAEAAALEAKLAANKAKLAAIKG

APC9806-AA = molecular target: T44, APC9806-AA; test: two-hybrid library CCmax; conditions: mean of both orientations
T44 chain: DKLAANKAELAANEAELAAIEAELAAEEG

## DKNAQLKQKNAELEQKIAELEWEIAQLEQ [4H4001-bA]
4H4001-bA
  interaction score: -0.927
4H454-bA
  interaction score: 1.01
4H462-bA
  interaction score: -0.0948
4H568-bA
  interaction score: -1.47
4H607-bA
  interaction score: -1.34
4H687-bA
  interaction score: -1.34
4H717-bA
  interaction score: -2.02
4H72-bA
  interaction score: -1.27
4H754-bA
  interaction score: -1.03
4H797-bA
  interaction score: -1.28
4H883-bA
  interaction score: -0.688
4H908-bA
  interaction score: -0.992
4H918-bA
  interaction score: -1.15
4H953-bA
  interaction score: -1.52
4H967-bA
  interaction score: -1.03

## DKNQQLKQKIQELKQENQELEWKIQELKQ [4H3926-bN]
4H3926-bN
  interaction score: -0.623
4H4073-bN
  interaction score: -1.26
4H457-bN
  interaction score: 1.06
4H575-bN
  interaction score: 0.813
4H591-bN
  interaction score: 0.172
4H626-bN
  interaction score: -0.388
4H683-bN
  interaction score: -1.15
4H754-bN
  interaction score: -0.867
4H780-bN
  interaction score: -0.772
4H797-bN
  interaction score: -0.358
4H855-bN
  interaction score: -0.684
4H906-bN
  interaction score: -0.529
4H918-bN
  interaction score: -2.11
4H953-bN
  interaction score: -0.788
4H968-bN
  interaction score: -0.934

## DKAAALKAELAANEAELAANEAKLAAIKG [APC3881-AA]
APC3881-AA
  interaction score: -1.67
APC4100-AA
  interaction score: -1.25
APC4336-AA
  interaction score: -1.5
APC5009-AA
  interaction score: -1.15
APC542-AA
  interaction score: -1.63
APC5531-AA
  interaction score: -1.92
APC6088-AA
  interaction score: -1.78
APC7524-AA
  interaction score: -1.49
APC8401-AA
  interaction score: -1.61
APC8516-AA
  interaction score: -1.39
APC9141-AA
  interaction score: -1.38
APC9182-AA
  interaction score: -1.63
APC9291-AA
  interaction score: -2.12
APC9806-AA
  interaction score: -1.72
